Here are results for ten molecules from PMC8298264, “Function of cofactor Akirin2 in the regulation of gene expression in model human neutrophil-like HL60 cells” (Bioscience Reports, 2021).

To fix the notation:
B1: sp¦O00273¦DFFA_HUMAN (protein, UniProt O00273 1-331, looked up)
DNA fragmentation factor …: MEVTGDAGVPESGEIRTLKPCLLRRNYSREQHGVAASCLEDLRSKACDILAIDKSLTPVTLVLAEDGTIVDDDDYFLCLPSNTKFVALASNEKWAYNNSDGGTAWISQESFDVDETDSGAGLKWKNVARQLKEDLSSIILLSEEDLQMLVDAPCSDLAQELRQSCATVQRLQHTLQQVLDQREEVRQSKQLLQLYLQALEKEGSLLSKQEESKAAFGEEVDAVDTGISRETSSDVALASHILTALREKQAPELSLSSQDLELVTKEDPKALAVALNWDIKKTETVQEACERELALRLQQTQSLHSLRSISASKASPPGDLQNPKRARQDPT
B2: sp¦P11279¦LAMP1_HUMAN (protein, UniProt P11279 29-417, looked up)
Lysosome-associated membrane …: AMFMVKNGNGTACIMANFSAAFSVNYDTKSGPKNMTFDLPSDATVVLNRSSCGKENTSDPSLVIAFGRGHTLTLNFTRNATRYSVQLMSFVYNLSDTHLFPNASSKEIKTVESITDIRADIDKKYRCVSGTQVHMNNVTVTLHDATIQAYLSNSSFSRGETRCEQDRPSPTTAPPAPPSPSPSPVPKSPSVDKYNVSGTNGTCLLASMGLQLNLTYERKDNTTVTRLLNINPNKTSASGSCGAHLVTLELHSEGTTVLLFQFGMNASSSRFFLQGIQLNTILPDARDPAFKAANGSLRALQATVGNSYKCNAEEHVRVTKAFSVNIFKVWVQAFKVEGGQFGSVEECLLDENSMLIPIAVGGALAGLVLIVLIAYLVGRKRSHAGYQTI
B3: sp¦Q9Y3F4¦STRAP_HUMAN (protein, UniProt Q9Y3F4 1-350, looked up)
Serine-threonine kinase …: MAMRQTPLTCSGHTRPVVDLAFSGITPYGYFLISACKDGKPMLRQGDTGDWIGTFLGHKGAVWGATLNKDATKAATAAADFTAKVWDAVSGDELMTLAHKHIVKTVDFTQDSNYLLTGGQDKLLRIYDLNKPEAEPKEISGHTSGIKKALWCSEDKQILSADDKTVRLWDHATMTEVKSLNFNMSVSSMEYIPEGEILVITYGRSIAFHSAVSLDPIKSFEAPATINSASLHPEKEFLVAGGEDFKLYKYDYNSGEELESYKGHFGPIHCVRFSPDGELYASGSEDGTLRLWQTVVGKTYGLWKCVLPEEDSGELAKPKIGFPETTEEELEEIASENSDCIFPSAPDVKA
B4: sp¦Q8NC51¦PAIRB_HUMAN (protein, UniProt Q8NC51 2-408, looked up)
SERPINE1 mRNA-binding protein …: PGHLQEGFGCVVTNRFDQLFDDESDPFEVLKAAENKKKEAGGGGVGGPGAKSAAQAAAQTNSNAAGKQLRKESQKDRKNPLPPSVGVVDKKEETQPPVALKKEGIRRVGRRPDQQLQGEGKIIDRRPERRPPRERRFEKPLEEKGEGGEFSVDRPIIDRPIRGRGGLGRGRGGRGRGMGRGDGFDSRGKREFDRHSGSDRSSFSHYSGLKHEDKRGGSGSHNWGTVKDELTESPKYIQKQISYNYSDLDQSNVTEETPEGEEHHPVADTENKENEVEEVKEEGPKEMTLDEWKAIQNKDRAKVEFNIRKPNEGADGQWKKGFVLHKSKSEEAHAEDSVMDHHFRKPANDITSQLEINFGDLGRPGRGGRGGRGGRGRGGRPNRGSRTDKSSASAPDVDDPEAFPALA
B5: sp¦O00154¦BACH_HUMAN (protein, UniProt O00154 1-380, looked up)
Cytosolic acyl coenzyme A …: MKLLARALRLCEFGRQASSRRLVAGQGCVGPRRGCCAPVQVVGPRADLPPCGACITGRIMRPDDANVAGNVHGGTILKMIEEAGAIISTRHCNSQNGERCVAALARVERTDFLSPMCIGEVAHVSAEITYTSKHSVEVQVNVMSENILTGAKKLTNKATLWYVPLSLKNVDKVLEVPPVVYSRQEQEEEGRKRYEAQKLERMETKWRNGDIVQPVLNPEPNTVSYSQSSLIHLVGPSDCTLHGFVHGGVTMKLMDEVAGIVAARHCKTNIVTASVDAINFHDKIRKGCVITISGRMTFTSNKSMEIEVLVDADPVVDSSQKRYRAASAFFTYVSLSQEGRSLPVPQLVPETEDEKKRFEEGKGRYLQMKAKRQGHAEPQP
B6: sp¦Q99614¦TTC1_HUMAN (protein, UniProt Q99614 1-292, looked up)
Tetratricopeptide repeat …: MGEKSENCGVPEDLLNGLKVTDTQEAECAGPPVPDPKNQHSQSKLLRDDEAHLQEDQGEEECFHDCSASFEEEPGADKVENKSNEDVNSSELDEEYLIELEKNMSDEEKQKRREESTRLKEEGNEQFKKGDYIEAESSYSRALEMCPSCFQKERSILFSNRAAARMKQDKKEMAINDCSKAIQLNPSYIRAILRRAELYEKTDKLDEALEDYKSILEKDPSIHQAREACMRLPKQIEERNERLKEEMLGKLKDLGNLVLRPFGLSTENFQIKQDSSTGSYSINFVQNPNNNR
B7: sp¦P27348¦1433T_HUMAN (protein, UniProt P27348 1-245, looked up)
14-3-3 protein theta: MEKTELIQKAKLAEQAERYDDMATCMKAVTEQGAELSNEERNLLSVAYKNVVGGRRSAWRVISSIEQKTDTSDKKLQLIKDYREKVESELRSICTTVLELLDKYLIANATNPESKVFYLKMKGDYFRYLAEVACGDDRKQTIDNSQGAYQEAFDISKKEMQPTHPIRLGLALNFSVFYYEILNNPELACTLAKTAFDEAIAELDTLNEDSYKDSTLIMQLLRDNLTLWTSDSAGEECDAAEGAEN
B8: sp¦O14745¦NHRF1_HUMAN (protein, UniProt O14745 2-358, looked up)
Na(+)/H(+) exchange …: SADAAAGAPLPRLCCLEKGPNGYGFHLHGEKGKLGQYIRLVEPGSPAEKAGLLAGDRLVEVNGENVEKETHQQVVSRIRAALNAVRLLVVDPETDEQLQKLGVQVREELLRAQEAPGQAEPPAAAEVQGAGNENEPREADKSHPEQRELRPRLCTMKKGPSGYGFNLHSDKSKPGQFIRSVDPDSPAEASGLRAQDRIVEVNGVCMEGKQHGDVVSAIRAGGDETKLLVVDRETDEFFKKCRVIPSQEHLNGPLPVPFTNGEIQKENSREALAEAALESPRPALVRSASSDTSEELNSQDSPPKQDSTAPSSTSSSDPILDFNISLAMAKERAHQKRSSKRAPQMDWSKKNELFSNL
B9: Pre-rRNA-processing protein TSR1 homolog (protein, UniProt Q2NL82 1-804, looked up)
Pre-rRNA-processing protein …: MAAHRPGPLKQQNKAHKGGRHRGRGSAQRDGKGRLALKTLSKKVRKELSRVDQRHRASQLRKQKKEAVLAEKRQLGGKDGPPHQVLVVPLHSRISLPEAMQLLQDRDTGTVHLNELGNTQNFMLLCPRLKHRWFFTSARPGDLHVVLDMAKVADTILFLLDPLEGWDSTGDYCLSCLFAQGLPTYTLAVQGISGLPLKKQIDTRKKLSKAVEKRFPHDKLLLLDTQQEAGMLLRQLANQKQQHLAFRDRRAYLFAHAVDFVPSEENNLVGTLKISGYVRGQTLNVNRLLHIVGYGDFQMKQIDAPGDPFPLNPRGIKPQKDPDMAMEICATDAVDDMEEGLKVLMKADPGRQESLQAEVIPDPMEGEQTWPTEEELSEAKDFLKESSKVVKKVPKGTSSYQAEWILDGGSQSGGEGDEYEYDDMEHEDFMEEESQDESSEEEEEYETMTIGESVHDDLYDKKVDEEAEAKMLEKYKQERLEEMFPDEVDTPRDVAARIRFQKYRGLKSFRTSPWDPKENLPQDYARIFQFQNFTNTRKSIFKEVEEKEVEGAEVGWYVTLHVSEVPVSVVECFRQGTPLIAFSLLPHEQKMSVLNMVVRRDPGNTEPVKAKEELIFHCGFRRFRASPLFSQHTAADKHKLQRFLTADMALVATVYAPITFPPASVLLFKQKSNGMHSLIATGHLMSVDPDRMVIKRVVLSGHPFKIFTKMAVVRYMFFNREDVLWFKPVELRTKWGRRGHIKEPLGTHGHMKCSFDGKLKSQDTVLMNLYKRVFPKWTYDPYVPEPVPWLKSEISSTVPQGGME
B10: Serine protease 57 (protein, UniProt Q6UWY2 32-283, looked up)
Serine protease 57: AQIIGGHEVTPHSRPYMASVRFGGQHHCGGFLLRARWVVSAAHCFSHRDLRTGLVVLGAHVLSTAEPTQQVFGIDALTTHPDYHPMTHANDICLLRLNGSAVLGPAVGLLRPPGRRARPPTAGTRCRVAGWGFVSDFEELPPGLMEAKVRVLDPDVCNSSWKGHLTLTMLCTRSGDSHRRGFCSADSGGPLVCRNRAHGLVSFSGLWCGDPKTPDVYTQVSAFVAWIWDVVRRSSPQPGPLPGTTRPPGEAA

The test system of the first assay is human HL60 cells. Description: SWATH-MS proteomics, differential protein representation, akirin2 KO vs WT HL60 cells. As to conditions: Over-represented in KO; KO vs WT HL60 cells. The format is cell-based. The protocol:
Total proteins were extracted from WT and akirin2 KO HL60 cells using the AllPrep DNA/RNA/Protein Mini Kit (Qiagen) and protein concentration was determined using the BCA Protein Assay with BSA (Sigma–Aldrich) as standard. Protein extracts (150 µg per sample, n=3 biological replicates) from each WT and KO cells were trypsin digested using the FASP Protein Digestion Kit (Expedeon Ltd., Abcam, Cambridge, U.K.) and sequencing grade trypsin (Promega, Madison, WI, U.S.A.) following manufacturer’s recommendations. The resulting peptides were finally desalted on to OMIX Pipette tips C18 (Agilent Technologies, Santa Clara, CA, U.S.A.), dried down and stored at −20 °C until mass spectrometry analysis. […] Three micrograms of each protein digest from the three biological replicates of WT and akirin2 KO HL60 cells were used for the generation of the reference spectral ion library as part of the SWATH-MS analysis.
Peptides were eluted in a 120-min gradient from 5 to 30% solvent B in solvent A followed by 15-min gradient from 30 to 60% solvent B in solvent A (solvent A: 0.1% formic acid in water, solvent B: 0.1% formic acid in acetonitrile) and directly injected into the mass spectrometer for analysis. For IDA experiments, the mass spectrometer was set to scanning full spectra (350–1400 m/z) using 250 ms accumulation time per spectrum, followed by up to 50 MS/MS scans (100–1500 m/z). Candidate ions with a charge state between +2 and +5 counts per second above a minimum threshold of 100 were isolated for fragmentation. One MS/MS spectrum was collected for 100 ms, before adding those precursor ions to the exclusion list for 15 s (mass spectrometer operated by Analyst TF 1.6, AB Sciex). Dynamic background subtraction was turned off. MS/MS analyses were recorded in high-sensitivity mode with rolling collision energy on and a collision energy spread of 5. For SWATH quantitative analysis, six independent samples (three replicates from WT and akirin2 KO HL60 cells, 5 µg each) were subjected to the cyclic DIA of mass spectra using the SWATH variable windows calculator (V 1.0, AB Sciex) and the SWATH acquisition method editor (AB Sciex), similar to established methods. […] For these experiments, a 50-ms survey scan (350–1400 m/z) was acquired at the beginning of each cycle, and SWATH–MS/MS spectra were collected from 100–1500 m/z for 70 ms at high-sensitivity mode, resulting in a cycle time of 3.6 s. Collision energy for each window was determined according to the calculation for a charge +2 ion-centered upon the window with a collision energy spread of 15. To create a spectral library of all the detectable peptides in the samples, the IDA MS raw files were combined and subjected to database search in unison using ProteinPilot software v. 5.0.1 (AB Sciex) with the Paragon algorithm. […] The detected protein threshold was set at 0.05. An independent false discovery rate (FDR) analysis, using the target–decoy approach provided by Protein Pilot (AB Sciex; https://sciex.com/products/software/proteinpilot-software), was used to assess the quality of identifications. Positive identifications were considered when identified proteins reached 1% of global FDR. […] Global normalization was performed according to the Total Area Sums (TAS) of all detected proteins in the samples. […] Heatmaps were prepared using the Heatmapper (http://www.heatmapper.ca/expression/) with average linkage and Euclidean distance measurement method.
With B1, the “Fold Change” value is listed as 1.2886 and the “Log (Fold Change)” value is recorded as 0.1101.

Regarding B2, the “Fold Change” value was determined as 1.301 and the “Log (Fold Change)” value was found to be 0.1143.

Take B3: the “Fold Change” value is given as 1.284 and the “Log (Fold Change)” value was 0.1086.

Regarding B4, the “Fold Change” value is 1.286 and the “Log (Fold Change)” value came to 0.1092.

With B5, the “Fold Change” value turned out to be 1.305 and the “Log (Fold Change)” value is reported as 0.1157.

Turning to B6, the “Fold Change” value is 1.292 and the “Log (Fold Change)” value was found to be 0.1114.

Take B7: the “Fold Change” value is 1.296 and the “Log (Fold Change)” value worked out at 0.1126.

Take B8: the “Fold Change” value came to 1.293 and the “Log (Fold Change)” value was determined as 0.1116.

The assay is the same for the next values; noted with them: SWATH-MS, akirin2 KO vs WT HL60 cells; over-represented in KO.
For B9, the “Fold Change” value was found to be 3.379 and the “Log (Fold Change)” value came out at 0.5288.

Take B10: the “Fold Change” value is on record as 3.338 and the “Log (Fold Change)” value was determined as 0.5235.
